The labels stand for the following.
B1: scFv; the commonest letter at each place (parent)
chain 1: EVKLDETGGGLVQPGRPMKLSCVASGFTFSDYWMNWVRQSPEKGLEWVAQIRNKPYNYETYYSDSVKGRFTISRDDSKSSVYLQMNNLRVEDMGIYYCTGSYYGMDYWGQGTSVTVS
chain 2: DVVMTQTPLSLPVSLGDQASISCRSSQSLVHSNGNTYLRWYLQKPGQSPKVLIYKVSNRFSGVPDRFSGSGSGTDFTLKISRVEAEDLGVYFCSQSTHVPWTFGGGTKLEIK

The variants in the series “fluorescein” derive from B1. As to the kind of experiment: Kd (Tite-Seq). As to conditions: with fluorescein; format: scFv 4-4-20, heavy + light.
In series [1] the parent is B1. As to the kind of experiment: yeast surface expression (ratio to wild type); higher = more expressed. Particulars: format: scFv 4-4-20, heavy + light.

Bounds are passed on as bounds.

Usually Kd stands for the concentration at which binding is half-saturated.

On to chain 1 Y102W Y107G, for which the Kd with fluorescein is no less than 10 µM. For the same variant, the yeast surface expression in series [1] was 0.493.
As to chain 1 D31K W33R V37C, the Kd with fluorescein is no less than 10 µM. In series [1], the yeast surface expression amounted to 0.501.
Regarding chain 1 M34G V37R, in the series with fluorescein, the equilibrium dissociation constant (Kd) was no less than 10 µM. Moreover, the yeast surface expression in series [1] was 1.62.
Regarding chain 1 G100V Y107M, the dissociation constant (Kd) in the series with fluorescein was no less than 10 µM. Besides, the yeast surface expression in series [1] was 0.726.
Take chain 1 S101Q Y103L D106G: the dissociation constant (Kd) with fluorescein is no less than 10 µM. Moreover, the yeast surface expression in series [1] was 0.41.
In the case of chain 1 G104C Y107F, the Kd in the series with fluorescein was no less than 10 µM. In addition, the yeast surface expression in series [1] stood at 0.291.
As for chain 1 W108L G109I, the dissociation constant Kd with fluorescein was no less than 10 µM. In series [1], the yeast surface expression came out at 0.203.
As to chain 1 T28F F29H, the Kd with fluorescein is no less than 10 µM. In addition, the yeast surface expression in series [1] was determined as 0.638.
Consider chain 1 F29Y V37I, for which, in the series with fluorescein, the dissociation constant Kd amounted to 0.00194 µM. In addition, the yeast surface expression in series [1] was determined as 0.9.
Take chain 1 G104T D106T Y107L: the Kd with fluorescein is no less than 10 µM. For the same variant, the yeast surface expression in series [1] stood at 0.547.
Turning to chain 1 G109Y, the Kd in the series with fluorescein was no less than 10 µM. Moreover, the yeast surface expression in series [1] turned out to be 0.212.
With chain 1 W36T, in the series with fluorescein, the dissociation constant Kd is no less than 10 µM. Moreover, the yeast surface expression in series [1] came out at 0.497.
As to chain 1 W36M, the Kd with fluorescein amounted to 0.0259 µM. The yeast surface expression in series [1] is 0.721.
On the same counts, the results for chain 1 D106G W108E are no less than 10 µM and 0.575.
On the same counts, the results for chain 1 T28W N35A are no less than 10 µM and 0.862.
For the variant chain 1 V37D, the Kd with fluorescein amounted to 0.00122 µM. In series [1], the yeast surface expression is 1.05.
Regarding chain 1 S30I M34N, in the series with fluorescein, the Kd was no less than 10 µM. Moreover, the yeast surface expression in series [1] was determined as 0.512.
Turning to chain 1 T28H V37L, the Kd with fluorescein was determined as 3.43 µM. The yeast surface expression in series [1] came out at 0.691.
On the same counts, the results for chain 1 F29Y Y32S are no less than 10 µM and 0.95.
For the variant chain 1 G100D G109N, the dissociation constant Kd with fluorescein was no less than 10 µM. Besides, the yeast surface expression in series [1] is 0.118.
Take chain 1 G100N G109R: the dissociation constant (Kd) with fluorescein was no less than 10 µM. Moreover, the yeast surface expression in series [1] was found to be 0.283.
With chain 1 T28L S30Y, the equilibrium dissociation constant (Kd) with fluorescein was found to be 0.00184 µM. Besides, the yeast surface expression in series [1] came to 0.738.
In the case of chain 1 G100Q G109C, the Kd with fluorescein was no less than 10 µM. The yeast surface expression in series [1] was determined as 0.226.
For the variant chain 1 D31G, the Kd with fluorescein is 0.00166 µM. Besides, the yeast surface expression in series [1] is 0.887.
For chain 1 M105W the same measures were 0.00251 µM and 0.648.
As for chain 1 M105K, in the series with fluorescein, the dissociation constant (Kd) was determined as 0.00546 µM. Besides, the yeast surface expression in series [1] came out at 1.02.
With chain 1 F29Q Y32V, the dissociation constant Kd with fluorescein is no less than 10 µM. Also, the yeast surface expression in series [1] was 0.848.
With chain 1 D31N Y32M, in the series with fluorescein, the dissociation constant Kd turned out to be 0.00672 µM. For the same variant, the yeast surface expression in series [1] was determined as 0.945.
For the variant chain 1 Y102A Y103E, the Kd with fluorescein was no less than 10 µM. Also, in series [1], the yeast surface expression was 1.23.
Turning to chain 1 Y102K Y107I, in the series with fluorescein, the equilibrium dissociation constant (Kd) amounted to 0.0302 µM. In series [1], the yeast surface expression turned out to be 1.
chain 1 Y102G M105C: the Kd with fluorescein is no less than 10 µM. For the same variant, the yeast surface expression in series [1] came to 0.828.
As to chain 1 M105F G109L, the dissociation constant (Kd) with fluorescein was no less than 10 µM. Moreover, the yeast surface expression in series [1] was found to be 0.369.
With chain 1 S101K Y107V, the Kd with fluorescein was no less than 10 µM. In series [1], the yeast surface expression was 0.507.
Turning to chain 1 Y32F M34Q, in the series with fluorescein, the equilibrium dissociation constant (Kd) is no less than 10 µM. In addition, the yeast surface expression in series [1] came to 0.502.
Turning to chain 1 G100S Y103P, the Kd in the series with fluorescein was no less than 10 µM. The yeast surface expression in series [1] came out at 0.689.
Consider chain 1 M105P Y107H, for which the Kd with fluorescein was no less than 10 µM. The yeast surface expression in series [1] came to 0.635.
Turning to chain 1 F29V V37G, the Kd with fluorescein was 5.96 µM. In addition, the yeast surface expression in series [1] came out at 0.65.
On the same counts, the results for chain 1 S30I D31H W33C are no less than 10 µM and 0.449.
On the same counts, the results for chain 1 Y102Q Y103A are 8.13 µM and 0.994.
As to chain 1 Y32P, the Kd with fluorescein is no less than 10 µM. In addition, the yeast surface expression in series [1] was determined as 0.908.
In the case of chain 1 Y102T Y103W, the dissociation constant (Kd) with fluorescein was found to be 0.00785 µM. Further, the yeast surface expression in series [1] was determined as 0.819.
With chain 1 W36D V37H, the Kd in the series with fluorescein was no less than 10 µM. In series [1], the yeast surface expression turned out to be 0.21.
As to chain 1 M34K N35A, the dissociation constant Kd in the series with fluorescein was determined as 0.0692 µM. Further, in series [1], the yeast surface expression was 0.175.
For the variant chain 1 S30T W33V, the Kd with fluorescein is no less than 10 µM. The yeast surface expression in series [1] was determined as 0.899.
With chain 1 Y102K, the Kd with fluorescein was determined as 0.021 µM. Further, in series [1], the yeast surface expression stood at 0.81.
In the case of chain 1 G104C, the Kd with fluorescein is no less than 10 µM. Moreover, the yeast surface expression in series [1] is 0.578.
As to chain 1 G104D, the Kd with fluorescein was no less than 10 µM. In addition, in series [1], the yeast surface expression turned out to be 0.918.
With chain 1 S101W G104H, the dissociation constant (Kd) in the series with fluorescein was no less than 10 µM. Besides, the yeast surface expression in series [1] was found to be 0.376.
Regarding chain 1 N35E V37W, the Kd in the series with fluorescein was no less than 10 µM. Also, in series [1], the yeast surface expression worked out at 0.704.
As to chain 1 F29C S30T N35E, the dissociation constant (Kd) with fluorescein amounted to 9.5 µM. In addition, in series [1], the yeast surface expression stood at 0.668.
Consider chain 1 G100T D106A, for which the equilibrium dissociation constant (Kd) in the series with fluorescein is no less than 10 µM. In addition, in series [1], the yeast surface expression is 0.704.
For chain 1 S30F N35T W36P, the Kd in the series with fluorescein is no less than 10 µM. Moreover, the yeast surface expression in series [1] is 1.41.

The values are drawn from the FLAb antibody collection (doi:10.7554/elife.23156).
